Assay results reported in patent publication US20230212587A1, “Mutant Hydroxyphenylpyruvate Dioxygenase Polypeptide, Encoding Gene Thereof and Use Therefor” (Beijing Dabeinong Biotechnology Co., Ltd., priority 2019, published 2023).

System: Arabidopsis thaliana T1 plants
Test: Topramezone tolerance of transgenic Arabidopsis thaliana T1 plants (pesticide damage grade by bleached leaf area, score, resistance evaluation)
Format: in vivo
Parameters: score: scale not given here
Conditions: for Grade 0 / Grade 1 / Grade 2 / Grade 3: number of plants
Description: The Arabidopsisthaliana T1 plants into which the AsHPPDm-F372A-02 nucleotide sequence was introduced, Arabidopsis thaliana T1 plants into which the AsHPPD-02 nucleotide sequence was introduced and wild-type Arabidopsisthaliana plants (18 days after sowing) were sprayed with topramezone at four different concentrations, i.e., 25 g ai/ha (one-fold field concentration, 1×), 50 g ai/ha (two-fold field concentration, 2×), 100 g ai/ha (four-fold field concentration, 4×) and 0 g ai/ha (water, 0×) to determine the tolerance of Arabidopsisthaliana to the herbicide. The degree of damage caused by the herbicide was measured for each plant according to the proportion of bleached leaf area (the proportion of bleached leaf area=bleached leaf area/total leaf area×100%) 7 days after spraying (7 DAT): the case where there is basically no bleached phenotype is defined as grade 0, the case where the proportion of bleached leaf area is less than 50% is defined as grade 1,the case where the proportion of bleached leaf area is more than 50% is defined as grade 2, and the case where the proportion of bleached leaf area is 100% grade is defined as grade 3.
(§1) According to the method as described above in point 6 of Example 1, the aforementioned Arabidopsisthaliana T1 plants and wild-type Arabidopsisthaliana plants (18 days after sowing) were sprayed with topramezone at three different concentrations respectively, i.e., 25 g ai/ha (one-fold field concentration, 1×), 100 g ai/ha (four-fold field concentration, 4×) and 0 g ai/ha(water, 0×) to detect the tolerance of Arabidopsisthaliana to the herbicide.
as §1, with “1x),” for “1×),”, “4x)” for “4×)”, “ai/ha (water, 0x)” for “ai/ha(water, 0×)”
According to the method as described above in point 6 of Example 1, the above-mentioned Arabidopsisthaliana T1 plants, Arabidopsisthaliana T1 plants into which the AsHPPD-02 nucleotide sequence was introduced, Arabidopsisthaliana T1 plants into which the PfHPPD-02 nucleotide sequence was introduced, and wild-type Arabidopsisthaliana plants (18 days after sowing) were sprayed with topramezone at four different concentrations respectively, that is, 25 g ai/ha (one-fold field concentration, 1x), 50 g ai/ha (two-fold field concentration, 2x), 100 g ai/ha (four-fold field concentration, 4x) and 0 g ai/ha (water, Ox) to detect the herbicide tolerance of Arabidopsisthaliana.
According to the method as described in point 6 of Example 1, the above-mentioned Arabidopsisthaliana T1 plants and wild-type Arabidopsisthaliana plants (18 days after sowing) were sprayed with topramezone at two different concentrations respectively, that is, 25 g ai/ha (one-fold field concentration, 1x) and 100 g ai/ha (four-fold field concentration, 4x) to detect the herbicide tolerance of Arabidopsisthaliana,. […]

[1] = topramezone 25 g ai/ha (1x), HPPD from Avena sativa source
[2] = topramezone 50 g ai/ha (2x), HPPD from Avena sativa source
[3] = topramezone 100 g ai/ha (4x), HPPD from Avena sativa source
[4] = topramezone 25 g ai/ha, mutation combination, Table 8
[5] = topramezone 100 g ai/ha, mutation combination, Table 8

B1: F372D (protein, listed as Avena sativa)
chain: MPPTPATATGAAAAAVTPEHAARSFPRVVRVNPRSDRFPVLSFHHVELWCADAASAAGRFSFALGAPLAARSDLSTGNSAHASLLLRSGALAFLFTAPYAPPPQEAATAAATASIPSFSADAARTFAAAHGLAVRSVGVRVADAAEAFRVSVAGGARPAFAPADLGHGFGLAEVELYGDVVLRFVSYPDETDLPFLPGFERVSSPGAVDYGLTRFDHVVGNVPEMAPVIDYMKGFLGFHEFAEFTAEDVGTTESGLNSVVLANNSEAVLLPLNEPVHGTKRRSQIQTYLEYHGGPGVQHIALASNDVLRTLREMRARTPMGGFEFMAPPQAKYYEGVRRIAGDVLSEEQIKECQELGVLVDRDDQGVLLQIDTKPVGDRPTFFLEMIQRIGCMEKDEVGQEYQKGGCGGFGKGNFSELFKSIEDYEKSLEVKQSVVAQKS
modifications: AsHPPD Amido Acid Sequence
tolerance to topramezone, in words (saturation mutation of HPPD from Avena sativa source (label F372X = AsHPPDm-F372X), topramezone 25, 50, 100 g ai/ha): better tolerance | Resistance Grade [1]: Highly resistant | score [1]: 7 | Grade 0 [1]: 16 | Grade 1 [1]: 4 | Grade 2 [1]: 0 | Grade 3 [1]: 0 | Resistance Grade [2]: Highly resistant | score [2]: 0 | Grade 0 [2]: 20 | Grade 1 [2]: 0 | Grade 2 [2]: 0 | Grade 3 [2]: 0 | Resistance Grade [3]: Highly resistant | score [3]: 0 | Grade 0 [3]: 20 | Grade 1 [3]: 0 | Grade 2 [3]: 0 | Grade 3 [3]: 0

B2: AsHPPDm-A110: Avena sativa HPPD with deletion of alanine at position 110, SEQ ID NO: 414 (protein)
chain: MPPTPATATGAAAAAVTPEHAARSFPRVVRVNPRSDRFPVLSFHHVELWCADAASAAGRFSFALGAPLAARSDLSTGNSAHASLLLRSGALAFLFTAPYAPPPQEAATAATASIPSFSADAARTFAAAHGLAVRSVGVRVADAAEAFRVSVAGGARPAFAPADLGHGFGLAEVELYGDVVLRFVSYPDETDLPFLPGFERVSSPGAVDYGLTRFDHVVGNVPEMAPVIDYMKGFLGFHEFAEFTAEDVGTTESGLNSVVLANNSEAVLLPLNEPVHGTKRRSQIQTYLEYHGGPGVQHIALASNDVLRTLREMRARTPMGGFEFMAPPQAKYYEGVRRIAGDVLSEEQIKECQELGVLVDRDDQGVLLQIFTKPVGDRPTFFLEMIQRIGCMEKDEVGQEYQKGGCGGFGKGNFSELFKSIEDYEKSLEVKQSVVAQKS
modifications: AsHPPDm-A110 Amino Acid Sequence
tolerance to topramezone, in words (Arabidopsis thaliana T1 plants sprayed with topramezone): a certain tolerance to low concentration of topramezone | Grade 0 (number of plants) [4]: 4 | Grade 1 (number of plants) [4]: 16 | Grade 2 (number of plants) [4]: 0 | Grade 3 (number of plants) [4]: 0 | Resistance Grade [4]: Moderately resistant | score [4]: 27 | Grade 0 (number of plants) [5]: 0 | Grade 1 (number of plants) [5]: 0 | Grade 2 (number of plants) [5]: 14 | Grade 3 (number of plants) [5]: 6 | Resistance Grade [5]: Non-resistant | score [5]: 77
